PMC11024467

Molecular target: IL-2Rα (UniProt P01589)
Experiment: SPR; Biacore, IL-2 receptor proteins immobilised on a CM5 chip; wild-type IL-2 or variant 012 flowed over at stepwise concentrations for 120 s, then blank solution; 1:1 binding fit (steady state affinity for 001 on IL-2Rα)

IL-2Rα, sequence (P01589 22-272): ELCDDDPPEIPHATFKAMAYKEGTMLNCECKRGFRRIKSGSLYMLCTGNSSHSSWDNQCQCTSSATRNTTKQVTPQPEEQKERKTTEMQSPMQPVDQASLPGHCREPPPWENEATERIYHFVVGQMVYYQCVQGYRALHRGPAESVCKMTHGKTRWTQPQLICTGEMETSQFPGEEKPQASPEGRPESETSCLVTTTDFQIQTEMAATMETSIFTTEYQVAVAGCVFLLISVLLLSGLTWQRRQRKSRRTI

A Kd of 0.0475 µM was found for wild-type IL-2 (001) (ligand) in this work.
